Experimental data from paper PMC8864165, “Functional Effects of ARV-1502 Analogs Against Bacterial Hsp70 and Implications for Antimicrobial Activity” (Frontiers in Chemistry, 2022).
Square brackets hold non-standard residues; d marks the D form. Ends that are not written are not given here. Cf = 5(6)-carboxyfluorescein label; Ac6c = NC1(C(=O)O)CCCCC1

T1: E. coli GrpE (Escherichia coli, UniProt P09372 1-197)
T1 construct: also called co-chaperone GrpE; nucleotide exchange factor GrpE; source: E. coli (DE3) Rosetta pLysS, purified (IMAC, TEV cleavage, second IMAC)
T1 sequence: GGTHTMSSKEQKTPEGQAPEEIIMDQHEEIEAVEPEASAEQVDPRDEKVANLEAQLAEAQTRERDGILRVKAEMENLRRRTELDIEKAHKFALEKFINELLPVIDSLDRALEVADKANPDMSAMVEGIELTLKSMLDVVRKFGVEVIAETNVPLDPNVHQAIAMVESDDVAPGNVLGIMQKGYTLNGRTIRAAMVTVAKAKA

T2: S. aureus GrpE (Staphylococcus aureus, UniProt P99086 1-208)
T2 construct: source: E. coli (DE3) Rosetta pLysS, purified (IMAC, TEV cleavage, second IMAC)
T2 sequence: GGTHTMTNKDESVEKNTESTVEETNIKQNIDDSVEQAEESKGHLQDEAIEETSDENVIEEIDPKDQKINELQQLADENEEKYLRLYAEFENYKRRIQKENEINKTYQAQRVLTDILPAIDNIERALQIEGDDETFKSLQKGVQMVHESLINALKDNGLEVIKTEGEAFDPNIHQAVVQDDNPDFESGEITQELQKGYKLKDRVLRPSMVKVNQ

T3: E. coli DnaJ (Escherichia coli, UniProt P08622 1-376)
T3 construct: source: E. coli (DE3) Rosetta pLysS, purified (IMAC, TEV cleavage, second IMAC)
T3 sequence: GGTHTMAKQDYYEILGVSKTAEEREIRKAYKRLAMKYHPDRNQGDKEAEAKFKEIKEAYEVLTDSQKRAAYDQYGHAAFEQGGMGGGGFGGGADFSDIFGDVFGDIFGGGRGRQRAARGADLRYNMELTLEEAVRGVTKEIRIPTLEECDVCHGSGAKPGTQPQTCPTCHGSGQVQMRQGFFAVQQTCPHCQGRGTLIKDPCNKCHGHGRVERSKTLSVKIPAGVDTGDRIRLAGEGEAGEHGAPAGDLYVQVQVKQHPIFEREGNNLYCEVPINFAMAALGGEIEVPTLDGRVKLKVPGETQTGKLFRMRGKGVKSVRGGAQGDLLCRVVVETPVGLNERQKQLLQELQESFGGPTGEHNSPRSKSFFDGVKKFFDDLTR


Legend:
E. coli DnaK [1] = molecular target: T4, E. coli DnaK (Escherichia coli, UniProt P0A6Y8 1-638); assay: fluorescence polarisation; competition screen at one concentration: unlabeled peptide 5 µmol/L with 5 µmol/L E. coli DnaK, or 35 µmol/L with 16 µmol/L S. aureus DnaK, 90 min 28°C, then Cf-ARV-1502 (10 µL of 80 nmol/L), 90 min 28°C; duplicates; FP normalized to ARV-1502; details: both partners purified
T4 construct: source: E. coli (DE3) Rosetta pLysS, purified (IMAC, TEV cleavage, second IMAC)

S. aureus DnaK [2] = molecular target: T5, S. aureus DnaK (Staphylococcus aureus, UniProt P99110 1-610); assay: as above; details: both partners purified
T5 construct: source: E. coli (DE3) Rosetta pLysS, purified (IMAC, TEV cleavage, second IMAC)

[3] = molecular target: T6, S. aureus DnaK/DnaJ/GrpE-chaperone system (Staphylococcus aureus, UniProt P99110 1-610; P63971 1-379; P99086 1-208); assay: fluorescence polarisation; as the direct titration, but with the full chaperone system: DnaK, DnaJ and GrpE (ratio 0.6:1.0:0.9) pre-incubated for 30 min at room temperature; details: both partners purified
T6 construct: also called full chaperone system (S. aureus); source: E. coli (DE3) Rosetta pLysS, each purified; mixed (ratio 0.6:1.0:0.9) and pre-incubated for 30 min at room temperature

[4] = molecular target: T7, E. coli DnaK/DnaJ/GrpE-chaperone system (Escherichia coli, UniProt P0A6Y8 1-638; P08622 1-376; P09372 1-197); assay: as above; details: both partners purified
T7 construct: also called full chaperone system (E. coli); source: E. coli (DE3) Rosetta pLysS, each purified; mixed (ratio 0.6:1.0:0.9) and pre-incubated for 30 min at room temperature

E. coli GrpE = molecular target: T1, E. coli GrpE; assay: fluorescence polarisation; direct titration: protein serially diluted twofold in 23 steps, Cf-labeled peptide added (20 µL of 40 nmol/L to 20 µL); FP-buffer 20 mmol/L Tris-HCl, 150 mmol/L KCl, 5 mmol/L MgCl2, 1 mmol/L NaN3, 2 mmol/L DTT, pH 7.5; 2 h, 28°C, dark; details: both partners purified
S. aureus GrpE = molecular target: T2, S. aureus GrpE; assay: as above; details: both partners purified
E. coli DnaK [5] = molecular target: T4, E. coli DnaK; assay: as above; details: both partners purified
S. aureus DnaK [6] = molecular target: T5, S. aureus DnaK; assay: as above; details: both partners purified
E. coli DnaJ = molecular target: T3, E. coli DnaJ; assay: as above; details: both partners purified
E. coli DnaK [7] = molecular target: T4, E. coli DnaK; assay: cell-based or functional assay

Row | Binder | binding result (E. coli DnaK [1]) | binding result (S. aureus DnaK [2]) | Kd [3] [µM] | Kd [4] [µM] | Kd (S. aureus DnaK [6]) [µM] | also measured
1 | [Ac6c]RPFFPRPYLPRKRPPRPVR-NH2 (source: synthetic peptide, bought: ABclonal, Inc) [peptide 105] | binds | binds | – | – | – | –
2 | [Ac6c]RPKKPRPYLPRLRPPRPVR-NH2 (N-terminus assumed; SMILES CC(C)C[C@H](NC(=O)[C@H](CCCNC(=N)N)NC(=O)[C@@H]1CCCN1C(=O)[C@H](CC(C)C)NC(=O)[C@H](Cc1ccc(O)cc1)NC(=O)[C@@H]1CCCN1C(=O)[C@H](CCCNC(=N)N)NC(=O)[C@@H]1CCCN1C(=O)[C@H](CCCCN)NC(=O)[C@H](CCCCN)NC(=O)[C@@H]1CCCN1C(=O)[C@H](CCCNC(=N)N)NC(=O)C1(N)CCCCC1)C(=O)N[C@@H](CCCNC(=N)N)C(=O)N1CCC[C@H]1C(=O)N1CCC[C@H]1C(=O)N[C@@H](CCCNC(=N)N)C(=O)N1CCC[C@H]1C(=O)N[C@H](C(=O)N[C@@H](CCCNC(=N)N)C(N)=O)C(C)C, source: synthetic peptide, bought: ABclonal, Inc) [peptide 45] | binds | binds | – | – | – | –
3 | Cf-RPDKPRPYLPRPRPPRPVR (also called 5(6)-carboxyfluorescein-labeled ARV-1502; source: synthetic peptide, in-house (Fmoc/tBu chemistry on Rink amide resin), RP-HPLC purified) [Cf-ARV-1502] | – | – | 30.2 | 3.1 | 25.1 | Kd (E. coli GrpE): ~213 µM; Kd (S. aureus GrpE): ~138 µM; Kd (E. coli DnaK [5]): 0.2 µM; Kd (E. coli DnaJ): ~33.4 µM
4 | Cf-RPFFPRPYLPLPRPPRPVR (source: synthetic peptide, in-house (Fmoc/tBu chemistry on Rink amide resin), RP-HPLC purified) [Cf-peptide 102] | – | – | 1.6 | 0.6 | 1.6 | –
5 | [Ac6c]RPFFPRPYLPFPRPPRPVR-NH2 (source: synthetic peptide, bought: ABclonal, Inc) [peptide 103] | binds | binds | – | – | – | –
6 | [Ac6c]RPDKPRPYLPRPRPPRPVR-NH2 (N-terminus assumed; SMILES CC(C)C[C@H](NC(=O)[C@H](Cc1ccc(O)cc1)NC(=O)[C@@H]1CCCN1C(=O)[C@H](CCCNC(=N)N)NC(=O)[C@@H]1CCCN1C(=O)[C@H](CCCCN)NC(=O)[C@H](CC(=O)O)NC(=O)[C@@H]1CCCN1C(=O)[C@H](CCCNC(=N)N)NC(=O)C1(N)CCCCC1)C(=O)N1CCC[C@H]1C(=O)N[C@@H](CCCNC(=N)N)C(=O)N1CCC[C@H]1C(=O)N[C@@H](CCCNC(=N)N)C(=O)N1CCC[C@H]1C(=O)N1CCC[C@H]1C(=O)N[C@@H](CCCNC(=N)N)C(=O)N1CCC[C@H]1C(=O)N[C@H](C(=O)N[C@@H](CCCNC(=N)N)C(N)=O)C(C)C) [ARV-1502] | – | – | – | – | – | refolding activity of the E. coli DnaK/DnaJ/GrpE-chaperone system (denatured luciferase refolding assay) at ARV-1502 concentrations ≥50 µmol/L, relative to no peptide (E. coli DnaK [7]): ~60%
